For assay [1], the target named is T1, human CLDN4 (Claudin-4) expressed by human cancer cell lines (Capan-2, HPAF-II, MCF7, HT-29, SW480, 22Rv1, DU … (human, UniProt O14493 1-209)).
T1 construct: Endogenous protein on cell lines; MCF7 is said to express both CLDN3 and CLDN4; also called CLDN4 expressed in breast cancer cells, colorectal cancer cells and prostate cancer cells
T1 sequence: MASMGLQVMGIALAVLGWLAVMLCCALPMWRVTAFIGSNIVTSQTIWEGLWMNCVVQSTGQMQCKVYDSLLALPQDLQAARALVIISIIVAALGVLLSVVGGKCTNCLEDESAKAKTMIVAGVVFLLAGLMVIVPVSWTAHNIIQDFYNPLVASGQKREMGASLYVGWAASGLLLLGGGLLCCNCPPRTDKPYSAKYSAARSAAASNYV
Put plainly: FCM on live Capan-2 cells (express CLDN4), 5 µg/ml. Here is the method: (§1) Pancreatic cancer cell line Capan-2 which expresses CLDN4 was used as the evaluation cell of cKM3900, and a breast cancer cell line MCF7 which expresses both of CLDN3 and CLDN4 was used as the evaluation cell of cKM3907. The cells were cultured for 3 to 4 days and peeled off using 0.02% EDTA solution (manufactured by Nacalai Tesque) to recover the resulting cells. The thus recovered cells were washed with PBS and, in order to avoid nonspecific adsorption of antibodies, blocked using BSA-PBS at ice temperature for 30 minutes. The cells were dispensed at 1 to 5×10⁵ cells/100 μl BSA-PBS into a 96-well U bottom plate and centrifuged (1,500 rpm, 5 minutes), the supernatant was removed and then 5 μg/ml of a negative control antibody cKM3034 (anti-FGF8 human chimeric antibody) [US 2004/0091480], an anti-CLDN4 monoclonal antibody KM3900 or KM3907 or an anti-CLDN4 human chimeric antibody cKM3900 or cKM3907 was dispensed as the primary antibody at 100 μl/well and allowed to react at ice temperature for 60 minutes. […] After washing again once with PBS and subsequently suspending in PBS, the fluorescent intensity was measured by FCM (manufactured by Beckman Coulter).

Assay [2] addresses T1, human CLDN4 (Claudin-4) expressed by …. The experiment in a line: FCM on live MCF7 cells (express both CLDN3 and CLDN4), 5 µg/ml. The procedure: as §1

B1: anti-CLDN4 human chimeric antibody cKM3900 (antibody, V domains shown)
VH: EVQLQQSGPELVKPGASVKISCKASGYTFTDYYMNWVKQSHGKSLEWIGDVVPNNGVPTYNQKFKGKATLTVDKSSSTAYMELRSLTSEDSAVYYCARPHYYYAGRSGAMDYWGQGTSVTVSS
VL: QIVLTQSPAIMSASLGERVTMTCTASSTVSSTYLHWYQQKPGSSPKLWIYSTSNLASGVPARFSGSGSGTSYSLTISSMEAEDAATYYCHQYHRSPPTFGGGTKLEIK
notes: Human chimeric IgG: mouse V regions of KM3900 joined to the human CH and CL of vector pKANTEX93 (WO 97/10354); also called cKM3900-93 (expression vector)
With B1, the binding result in assay [1] is given as “binds”.

B2: anti-CLDN4 human chimeric antibody cKM3907 (antibody, V domains shown)
VH: QVQLQQSGPELVKPGASVKISCKASGYAISTSWMNWVKQRPGKGLEWIGRINPGDGNTNYNGKFMAKATLTADKPSSTAYMQLSSLTSEDSAVYFCTRGDRWSGAMDYWGQGTSVTVSS
VL: GNVLTQSPAIMSASPGEKVTMTCRASSSVSSSYLHWYQQKSGASPKLWIYSTSNLASGVPVRFSGSGSGTSYSLTISSVEAEDAATYYCQQYSGFPLTFGAGTKLELK
notes: Human chimeric IgG: mouse V regions of KM3907 joined to the human CH and CL of vector pKANTEX93 (WO 97/10354); also called cKM3907-93 (expression vector)
Consider B2, for which the binding result in assay [2] is “binds”.

For the origin of these results see patent publication US20090202556A1 (Kyowa Kirin, published 2009).
